Substitutions are numbered along the chain they refer to.
T1: AePiwi4 PAZ WT (Aedes aegypti, UniProt Q171B3 270-380)
T1 sequence: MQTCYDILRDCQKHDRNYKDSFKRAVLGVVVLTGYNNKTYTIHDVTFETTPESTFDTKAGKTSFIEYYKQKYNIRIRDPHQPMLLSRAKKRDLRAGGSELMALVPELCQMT

T2: AePiwi4 PAZ Y40A (Aedes aegypti, UniProt Q171B3 270-380, Y309A)
T2 sequence: T1 sequence with Y40A

T3: AePiwi4 PAZ T41R (Aedes aegypti, UniProt Q171B3 270-380, T310R)
T3 sequence: T1 sequence with T41R

T4: AePiwi4 PAZ T41A (Aedes aegypti, UniProt Q171B3 270-380, T310A)
T4 sequence: T1 sequence with T41A

T5: AePiwi4 PAZ T39A (Aedes aegypti, UniProt Q171B3 270-380, T308A)
T5 sequence: T1 sequence with T39A

T6: AePiwi4 PAZ F55A (Aedes aegypti, UniProt Q171B3 270-380, F324A)
T6 sequence: T1 sequence with F55A

B1: 3'm 28 nt PCLV piRNA (ssRNA)
RNA: CGAUAAGUGAUCUUUCAGCACUGCAGAA
modifications: 3' terminal 2'-O-methyl
B2: 3'nm 28 nt PCLV piRNA (ssRNA)
RNA: CGAUAAGUGAUCUUUCAGCACUGCAGAA
B3: 3'nm 28 nt scrambled RNA (ssRNA)
RNA: AUGAGGACAUAAGCCUACGUAGUAUUCC

What was measured:
Test in all cases: SPR; SPR (Biacore T100, CM5-neutravidin, 5'-biotin RNA immobilized): 10 mM HEPES pH 7.4, 150 mM NaCl, 3 mM EDTA, 0.005% P20; steady-state fit; temperature not stated
Conditions in all cases: protein: recombinant; tags: 6xHis (C-terminal); label: 5' biotin; single strand
AePiwi4 PAZ WT = biological target: T1, AePiwi4 PAZ WT
AePiwi4 PAZ Y40A = biological target: T2, AePiwi4 PAZ Y40A
AePiwi4 PAZ T41R = biological target: T3, AePiwi4 PAZ T41R
AePiwi4 PAZ T41A = biological target: T4, AePiwi4 PAZ T41A
AePiwi4 PAZ T39A = biological target: T5, AePiwi4 PAZ T39A
AePiwi4 PAZ F55A = biological target: T6, AePiwi4 PAZ F55A

Row | Binder | Kd (AePiwi4 PAZ WT) [nM] | Kd (AePiwi4 PAZ Y40A) [nM] | Kd (AePiwi4 PAZ T41R) [nM] | Kd (AePiwi4 PAZ T41A) [nM] | Kd (AePiwi4 PAZ T39A) [nM] | binding result (AePiwi4 PAZ F55A) | binding result (AePiwi4 PAZ Y40A)
1 | B1 | 1700 ± 800 | 5500 ± 500 | 570 ± 100 | 1400 ± 100 | 980 ± 200 | no binding | 
2 | B2 | 5000 ± 2200 |  | 2000 ± 500 | 5600 ± 1200 | 2800 ± 400 | no binding | no binding
3 | B3 | 2500 ± 100 |  |  |  |  |  | 

From PMC8657434, “Aedes aegypti Piwi4 Structural Features Are Necessary for RNA Binding and Nuclear Localization”
